This note sets out measurements from publication PMC9853177 (2023).

This test deals with linear tetra-ubiquitin (M1-linked Ub4) (Homo sapiens, UniProt P0CG47). The test is described as follows: ITC.

B1: HOIL-1 (protein)
chain: MDEKTKKAEEMALSLTRAVAGGDEQVAMKCAIWLAEQRVPLSVQLKPEVSPTQDIRLWVSVEDAQMHTVTIWLTVRPDMTVASLKDMVFLDYGFPPVLQQWVIGQRLARDQETLHSHGVRQNGDSAYLYLLSARNTSLNPQELQRERQLRMLEDLGFKDLTLQPRGPLEPGPPKPGVPQEPGRGQPDAVPEPPPVGWQCPGCTFINKPTRPGCEMCCRARPEAYQVPASYQPDEEERARLAGEEEALRQYQQRKQQQQEGNYLQHVQLDQRSLVLNTEPAECPVCYSVLAPGEAVVLRECLHTFCRECLQGTIRNSQEAEVSCPFIDNTYSCSGKLLEREIKALLTPEDYQRFLDLGISIAENRSAFSYHCKTPDCKGWCFFEDDVNEFTCPVCFHVNCLLCKAIHEQMNCKEYQEDLALRAQNDVAARQTTEMLKVMLQQGEAMRCPQCQIVVQKKDGCDWIRCTVCHTEICWVTKGPRWGPGGPGDTSGGCRCRVNGIPCHPSCQNCH
Regarding B1, binding was characterised by a dissociation constant (Kd) of 90 nM.
